Experimental findings from the supplement of paper PMC12042874 are described below.

± gives the uncertainty stated by the source.

The nature of the data set: amyloid nucleation score (Sup35N fusion, yeast selection) (log enrichment); library NNK2; higher = more nucleation; inactive = no reads after selection. The method in brief: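 The nucleation score is the log enrichment of output over input reads, calculated with DiMSum and centred on the mode score of non-aggregating sequences. Sequences with under 100 input reads were excluded. Reads came from Illumina sequencing of plasmid inserts from psi-negative yeast expressing Sup35N fused to peptides of 20 random codons, induced 24 hours with 100 μM copper sulfate and grown 7 days at 30°C without adenine and uracil.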
In the case of RLIRFSIMEV, the amyloid nucleation score was -0.291 ± 0.54.

In turn, MGIMPQITLDLNLLYLGKVL returned an amyloid nucleation score of 0.14 ± 0.35.

In the case of GDHRFMSVVYVFYQSLNGVV, the amyloid nucleation score came to 3.41 ± 0.049.

Substance ILVTAYTFTMVRSDEGCRKV registered an amyloid nucleation score of 3.63 ± 0.085.

Consider LSGWDVHTSSTSVFRNNFIY, for which the amyloid nucleation score result was “inactive”.

Turning to ERILSFFF, the amyloid nucleation score result is “inactive”.

On to FYLRFNTFVSDTNCLTDWLA, for which the amyloid nucleation score came to 3.46 ± 0.087.

In turn, EVHGCYRAWDCMMVACVNAL registered an amyloid nucleation score of 0.963 ± 0.53.

As for THVLIFFMVLDLGPFKTGAD, the amyloid nucleation score is -0.441 ± 1.1.

YAHRTSTA registered an amyloid nucleation score of 0.342 ± 0.62.

In the case of MSLTIWGICRCKQ, the amyloid nucleation score is -0.097 ± 0.76.

On to KRGCNQHFNSMRYLVMFLVS, for which the amyloid nucleation score is -0.915 ± 0.62.

The substance SPLASYIAVLWGNVR registered an amyloid nucleation score of -0.515 ± 1.1.

In the case of THFSPMGY, the amyloid nucleation score was -0.586 ± 1.1.

GALGTRRFSGMCLVCESRSG came in with an amyloid nucleation score of 5.28 ± 0.097.

On to VIQIVNFSDNIMTCLHNHLQ, for which the amyloid nucleation score came to 5.64 ± 0.086.

On to AYIVDTKVT, for which the amyloid nucleation score came out at 1.11 ± 0.68.

In the case of SFNDESGFLLSSGYPISFKR, the amyloid nucleation score entry is “inactive”.

On to DMLPLMSAVPHSFSMLVWGE, for which the amyloid nucleation score was -0.109 ± 0.36.

As for FWSIMWLVCPGAMWCNT, the amyloid nucleation score was determined as 1.84 ± 0.28.

Regarding PNSGFSGNCIKVIQHNLQG, the amyloid nucleation score entry was “inactive”.

In turn, GDSGFKLI gave an amyloid nucleation score of -0.105 ± 0.39.

In turn, YRSSLRHFSVYSYNSFSELL showed an amyloid nucleation score of 0.626 ± 0.65.

HASNH: the amyloid nucleation score is -0.689 ± 0.42.

In the case of NGNGCLAFAKTVFCWVDGLP, the amyloid nucleation score was 7.215 ± 0.046.

On to VLPQDKNMILYYKSLLHLFC, for which the amyloid nucleation score was 0.823 ± 0.44.

RATPTSLSIAMFCLFGHALL came in with an amyloid nucleation score of 5.87 ± 0.079.

Consider LHWKWQMNCLWSEGSHCFNN, for which the amyloid nucleation score is 0.116 ± 0.33.

As for IIRVSSCPCTNI, the amyloid nucleation score result was “inactive”.

With LWIYRVAYFGFLNYKFSVFL, the amyloid nucleation score was -1.09 ± 0.42.

Take DLPYSSVIRKYMSKMWLHMN: the amyloid nucleation score is 0.218 ± 0.36.

With AEVGTPESLLEGNIDRERIP, the amyloid nucleation score is 0.42 ± 0.36.

On to HLDLDPPM, for which the amyloid nucleation score came out at 0.284 ± 1.1.

With SVRMYWAGLLSENKRYNSQS, the amyloid nucleation score was 3.89 ± 0.12.

On to VWGHWPSRFSQQSRCN, for which the amyloid nucleation score came out at 0.185 ± 0.5.

Substance YGQAMWASIFMIYRLPKTLR yielded an amyloid nucleation score of -1.13 ± 0.28.

FMLYMRLCKFYYFFGS showed an amyloid nucleation score of -1.29 ± 0.41.

With RVVQPKFMLGVQYSAIQFNS, the amyloid nucleation score is 2.47 ± 0.089.

Consider ILRSRGERISASY, for which the amyloid nucleation score was found to be 2.97 ± 0.14.

Regarding EGRVHTSLLVVCVTHTRKYM, the amyloid nucleation score was -0.688 ± 0.42.

As for YRINEDET, the amyloid nucleation score was -1.55 ± 0.41.

Regarding GDSVLLYKWYMLGCWPIGSC, the amyloid nucleation score turned out to be 4.31 ± 0.056.

In turn, GDTAWFKVDQLPRLPNTRLQ yielded an amyloid nucleation score of 0.998 ± 0.74.

CTFTRLRSSAGSGIRQTPRL displayed an amyloid nucleation score of 0.048 ± 0.79.

On to DSVFVFGSHLFLQNSVRGRT, for which the amyloid nucleation score is -0.295 ± 0.24.

As to ISPISEQHMLSLTSYEP, the amyloid nucleation score is 1.74 ± 0.35.

Consider HHRGMIMLHNINYLRSFNAT, for which the amyloid nucleation score is -0.465 ± 0.44.

Substance FRVTIMVIQNSPTVSPGLAG displayed an amyloid nucleation score of 4.31 ± 0.08.

Take LMGIILF: the amyloid nucleation score was -1.49 ± 0.78.

Turning to HQRSDYV, the amyloid nucleation score came to 0.383 ± 0.74.

In turn, DVRFVTEFKSYRSCCKQSMF registered an amyloid nucleation score of 2.42 ± 0.054.

As for GANMLETV, the amyloid nucleation score is -0.085 ± 0.47.

Consider VQDYFFSCFATRSV, for which the amyloid nucleation score is 3.26 ± 0.059.

With AGMMFKR, the amyloid nucleation score was determined as 1.71 ± 0.37.

IHLKLRRYLDNYYLNATNCG showed an amyloid nucleation score of -0.509 ± 0.31.

The substance SHLCQVLVVLGGASTV had an amyloid nucleation score of 6.41 ± 0.077.

In turn, VFRVCEMDSSLFHYGLALDR displayed an amyloid nucleation score of 0.521 ± 0.3.

Substance MLVLSTGHPRGFWTRVVCCD showed an amyloid nucleation score of 0.092 ± 1.1.

With NLYMFIRRAPDIIFCAHVYQ, the amyloid nucleation score came out at 4.35 ± 0.051.

On to FTIHWRVGCTQWLEAVIGYM, for which the amyloid nucleation score was found to be 4.07 ± 0.1.

ISSSIEHNRCGVEINVICWS displayed an amyloid nucleation score of 7.312 ± 0.051.

HSLRGTWMGMVSASCTPVDM yielded an amyloid nucleation score of 4.27 ± 0.057.

TVRVGAIVNSTHLVGTNSAF: the amyloid nucleation score is -0.314 ± 0.34.

Turning to VLACTEGNVLFEDDLRTKGL, the amyloid nucleation score was 1.56 ± 0.35.

On to LDWRTQFLCV, for which the amyloid nucleation score is 1.19 ± 0.61.

In the case of YWVFI, the amyloid nucleation score was -0.115 ± 0.56.

On to SVILILSVGLLTIYLSRNG, for which the amyloid nucleation score is 2.76 ± 0.078.

For RNSSYIDFIGRWH, the amyloid nucleation score entry is “inactive”.

Take KALFLYYSSVRITHNKLHAR: the amyloid nucleation score entry is “inactive”.

The substance SIGVSDGNPGRAVGGGLMGH yielded an amyloid nucleation score of 0.098 ± 0.49.

For the substance SFINVLDQRVILRPPTRVFV, the amyloid nucleation score was found to be 0.494 ± 0.65.

SVRVVDDGKTGGVGGTSQR came in with an amyloid nucleation score of 0.767 ± 0.8.

For VVNLETVCIYRKLSYKFQVR, the amyloid nucleation score result is “inactive”.

As for ICIVVVCDFCIYRMCATGTV, the amyloid nucleation score stood at 0.735 ± 0.28.

On to KMVYGLQGWLGLGSTVFWSP, for which the amyloid nucleation score stood at 3.2 ± 0.13.

In the case of KCNVMRQMRFMLPFTVIVVL, the amyloid nucleation score amounted to 0.204 ± 0.31.

For LVQLMMMFWKRGLRDSANMV, the amyloid nucleation score is -1.13 ± 0.78.

For LCLTYYRDHGVLASMYFHVW, the amyloid nucleation score was 0.529 ± 0.31.

For MNNDSAFIEYTGHQWIWGVR, the amyloid nucleation score was 0.269 ± 0.26.

CCQSFNVNRSTLNNLGRSYL: the amyloid nucleation score was 0.848 ± 0.16.

On to DRTKNFLCMMKRGFLSKIPW, for which the amyloid nucleation score is 0.227 ± 0.56.

Regarding VPLCDVYWA, the amyloid nucleation score is -0.902 ± 0.61.

Substance SRVTYMRATDSMTTVVFWGV had an amyloid nucleation score of 5.31 ± 0.064.

Consider CGNISQVKEDLRMTTLIFRV, for which the amyloid nucleation score entry was “inactive”.

Substance RHGMNGRLTFLASTYSASRL registered an amyloid nucleation score of 0.349 ± 0.22.

The substance CPSFMNSFDASRNIWIVPSG had an amyloid nucleation score of 3.28 ± 0.058.

Turning to DHITVVAIKKEHLVEIIYVY, the amyloid nucleation score was -0.904 ± 0.35.

RQVSHVNFAVLNINYNWYRS yielded an amyloid nucleation score of 8.16 ± 0.084.

Take DLYIS: the amyloid nucleation score came to 0.13 ± 0.8.

NGTTWKYYSRMSVTCAGPSI yielded an amyloid nucleation score of -0.952 ± 0.39.

In turn, LSRQGRLESVKDGRSMWVSG returned an amyloid nucleation score of -0.283 ± 1.1.

IEMLSNY had an amyloid nucleation score of -0.575 ± 0.49.

Consider VWLEACGFSRIFSLQFLVSV, for which the amyloid nucleation score is -0.476 ± 0.76.

The substance LGNDR had an amyloid nucleation score of -0.744 ± 0.48.

As for FVTRGSVAMTQVGYNTVIRM, the amyloid nucleation score came to 5.64 ± 0.061.

Substance ENIYRRLLVLELLVWSCRGK registered an amyloid nucleation score of 0.569 ± 0.34.

With VVHDNW, the amyloid nucleation score came to 0.29 ± 0.22.

As for HRLFSY, the amyloid nucleation score was -0.776 ± 0.63.

For IGWFKRRSCVEFGRRRMRIL, the amyloid nucleation score was -1.3 ± 1.1.

Consider GIKRMCMVPPVIKSNAYSLN, for which the amyloid nucleation score was determined as 2.95 ± 0.062.

Substance QLMDGSRSLFMALRRRFLLV displayed an amyloid nucleation score of 0.691 ± 0.74.

In the case of FSVLWEMDRLVHG, the amyloid nucleation score was found to be 0.95 ± 0.29.

Consider VDLSLTHYCARSNYLGGPSF, for which the amyloid nucleation score was determined as 3.17 ± 0.076.
